Laboratory results taken from publication doi:10.1101/2020.06.21.162990 (bioRxiv, 2020).

Molecular target: the molecule itself
Assay: SEC-MALS

B1: recombinant human ADA2 (adenosine deaminase 2), aa29-511 (enzyme, UniProt Q9NZK5 29-511, looked up)
chain: SIDETRAHLLLKEKMMRLGGRLVLNTKEELANERLMTLKIAEMKEAMRTLIFPPSMHFFQAKHLIERSQVFNILRMMPKGAALHLHDIGIVTMDWLVRNVTYRPHCHICFTPRGIMQFRFAHPTPRPSEKCSKWILLEDYRKRVQNVTEFDDSLLRNFTLVTQHPEVIYTNQNVVWSKFETIFFTISGLIHYAPVFRDYVFRSMQEFYEDNVLYMEIRARLLPVYELSGEHHDEEWSVKTYQEVAQKFVETHPEFIGIKIIYSDHRSKDVAVIAESIRMAMGLRIKFPTVVAGFDLVGHEDTGHSLHDYKEALMIPAKDGVKLPYFFHAGETDWQGTSIDRNILDALMLNTTRIGHGFALSKHPAVRTYSWKKDIPIEVCPISNQVLKLVSDLRNHPVATLMATGHPMVISSDDPAMFGAKGLSYDFYEVFMGIGGMKADLRTLKQLAMNSIKYSTLLESEKNTFMEIWKKRWDKFIADVATK
B1: binds.
